B1: ERBB receptor feedback inhibitor 1 (Homo sapiens), Q9UJM3 (parent)
chain: MSIAGVAAQEIRVPLKTGFLHNGRAMGNMRKTYWSSRSEFKNNFLNIDPITMAYSLNSSAQERLIPLGHASKSAPMNGHCFAENGPSQKSSLPPLLIPPSENLGPHEEDQVVCGFKKLTVNGVCASTPPLTPIKNSPSLFPCAPLCERGSRPLPPLPISEALSLDDTDCEVEFLTSSDTDFLLEDSTLSDFKYDVPGRRSFRGCGQINYAYFDTPAVSAADLSYVSDQNGGVPDPNPPPPQTHRRLRRSHSGPAGSFNKPAIRISNCCIHRASPNSDEDKPEVPPRVPIPPRPVKPDYRRWSAEVTSSTYSDEDRPPKVPPREPLSPSNSRTPSPKSLPSYLNGVMPPTQSFAPDPKYVSSKALQRQNSEGSASKVPCILPIIENGKKVSSTHYYLLPERPPYLDKYEKFFREAEETNGGAQIQPLPADCGISSATEKPDSKTKMDLGGHVKRKHLSYVVSP
partner: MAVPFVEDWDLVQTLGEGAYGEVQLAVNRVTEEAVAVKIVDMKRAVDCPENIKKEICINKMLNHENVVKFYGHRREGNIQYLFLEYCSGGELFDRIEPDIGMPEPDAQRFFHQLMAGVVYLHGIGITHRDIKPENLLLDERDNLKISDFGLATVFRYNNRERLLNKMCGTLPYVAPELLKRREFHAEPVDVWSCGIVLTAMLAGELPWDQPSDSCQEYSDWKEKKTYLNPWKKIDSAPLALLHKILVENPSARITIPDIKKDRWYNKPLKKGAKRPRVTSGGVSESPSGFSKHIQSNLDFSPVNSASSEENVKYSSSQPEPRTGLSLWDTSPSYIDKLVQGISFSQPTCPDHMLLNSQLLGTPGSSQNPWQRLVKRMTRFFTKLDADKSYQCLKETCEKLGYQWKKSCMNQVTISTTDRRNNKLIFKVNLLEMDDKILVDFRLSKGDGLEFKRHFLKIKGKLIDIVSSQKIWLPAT

Variants of: B1
Details: with chk1_human CHEK1, O14757

| Variant | effect of a mutation on the interaction |
| --- | --- |
| S334A | decreasing interaction |
| S302A | decreasing interaction |
| S369A | decreasing interaction |

Variants of: B1
Details: with chk1_human CHEK1, O14757
Remark: another data set of the same source

| Variant | effect of a mutation on the interaction |
| --- | --- |
| S251A | decreasing interaction |
| S249A | decreasing interaction |
